T1: EsCas13d, nuclease-dead (Eubacterium siraeum, UniProt B0MS50, R295A;H300A;R849A;H854A)
T1 sequence: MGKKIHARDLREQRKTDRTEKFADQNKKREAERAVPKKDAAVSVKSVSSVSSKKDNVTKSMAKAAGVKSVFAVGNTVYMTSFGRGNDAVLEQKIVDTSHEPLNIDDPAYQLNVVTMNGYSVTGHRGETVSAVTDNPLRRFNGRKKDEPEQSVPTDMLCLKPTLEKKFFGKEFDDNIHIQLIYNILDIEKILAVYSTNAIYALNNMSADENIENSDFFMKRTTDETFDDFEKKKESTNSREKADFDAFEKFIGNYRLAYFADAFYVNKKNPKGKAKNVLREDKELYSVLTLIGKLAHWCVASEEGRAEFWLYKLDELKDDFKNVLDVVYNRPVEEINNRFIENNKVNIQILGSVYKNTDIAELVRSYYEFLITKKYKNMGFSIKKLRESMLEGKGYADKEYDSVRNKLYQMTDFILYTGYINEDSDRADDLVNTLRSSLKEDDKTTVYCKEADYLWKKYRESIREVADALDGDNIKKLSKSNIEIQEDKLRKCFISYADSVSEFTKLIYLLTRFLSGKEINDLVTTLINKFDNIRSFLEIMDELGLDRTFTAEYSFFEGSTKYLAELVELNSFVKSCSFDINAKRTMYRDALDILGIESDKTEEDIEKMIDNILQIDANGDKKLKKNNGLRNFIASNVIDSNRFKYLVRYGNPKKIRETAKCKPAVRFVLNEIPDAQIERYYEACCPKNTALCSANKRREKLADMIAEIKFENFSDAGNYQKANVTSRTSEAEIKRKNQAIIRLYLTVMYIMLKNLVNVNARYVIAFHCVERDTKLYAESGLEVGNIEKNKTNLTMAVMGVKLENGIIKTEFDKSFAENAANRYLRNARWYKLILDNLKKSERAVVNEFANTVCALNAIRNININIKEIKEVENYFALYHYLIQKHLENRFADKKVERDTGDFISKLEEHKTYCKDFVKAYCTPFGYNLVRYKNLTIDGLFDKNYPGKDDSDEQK

B1: target 1 C7G,U10A (mixed)
RNA 1: CACCCGUGCAAAAAUGCAGGGGUCUAAAACUGAGCGGAUAACCUCUCUAUGG
RNA 2: GGGAAUGGAUCCACAUCUACGAAUUCGUACCAUAGAGAGGUAAUGCGCUCACCGAGAUCGGAAGAGCACACGU
B2: target 1 insA 3' of 4 (mixed)
RNA 1: CACCCGUGCAAAAAUGCAGGGGUCUAAAACUGAGCGGAUAACCUCUCUAUGG
RNA 2: GGGAAUGGAUCCACAUCUACGAAUUCGUACCAUAGAGAGGUUAUCCGCAUCACCGAGAUCGGAAGAGCACACGU
B3: target 1 del15,del20 (mixed)
RNA 1: CACCCGUGCAAAAAUGCAGGGGUCUAAAACUGAGCGGAUAACCUCUCUAUGG
RNA 2: GGGAAUGGAUCCACAUCUACGAAUUCGUACCUAGAAGGUUAUCCGCUCACCGAGAUCGGAAGAGCACACGU
B4: target 1 insG 3' of 14,insA 3' of 13 (mixed)
RNA 1: CACCCGUGCAAAAAUGCAGGGGUCUAAAACUGAGCGGAUAACCUCUCUAUGG
RNA 2: GGGAAUGGAUCCACAUCUACGAAUUCGUACCAUAGAGAGGAGUUAUCCGCUCACCGAGAUCGGAAGAGCACACGU
B5: target 1 C4A,G12C (mixed)
RNA 1: CACCCGUGCAAAAAUGCAGGGGUCUAAAACUGAGCGGAUAACCUCUCUAUGG
RNA 2: GGGAAUGGAUCCACAUCUACGAAUUCGUACCAUAGAGAGCUUAUCCGAUCACCGAGAUCGGAAGAGCACACGU
B6: target 1 insA 3' of 21,insU 3' of 14 (mixed)
RNA 1: CACCCGUGCAAAAAUGCAGGGGUCUAAAACUGAGCGGAUAACCUCUCUAUGG
RNA 2: GGGAAUGGAUCCACAUCUACGAAUUCGUACCAAUAGAGAUGGUUAUCCGCUCACCGAGAUCGGAAGAGCACACGU
B7: target 1 A18U,C21A (mixed)
RNA 1: CACCCGUGCAAAAAUGCAGGGGUCUAAAACUGAGCGGAUAACCUCUCUAUGG
RNA 2: GGGAAUGGAUCCACAUCUACGAAUUCGUACAAUUGAGAGGUUAUCCGCUCACCGAGAUCGGAAGAGCACACGU
B8: target 1 C6U,G17A (mixed)
RNA 1: CACCCGUGCAAAAAUGCAGGGGUCUAAAACUGAGCGGAUAACCUCUCUAUGG
RNA 2: GGGAAUGGAUCCACAUCUACGAAUUCGUACCAUAAAGAGGUUAUCUGCUCACCGAGAUCGGAAGAGCACACGU
B9: target 1 G17C,C22A (mixed)
RNA 1: CACCCGUGCAAAAAUGCAGGGGUCUAAAACUGAGCGGAUAACCUCUCUAUGG
RNA 2: GGGAAUGGAUCCACAUCUACGAAUUCGUAACAUACAGAGGUUAUCCGCUCACCGAGAUCGGAAGAGCACACGU
B10: target 1 G5A,C6U (mixed)
RNA 1: CACCCGUGCAAAAAUGCAGGGGUCUAAAACUGAGCGGAUAACCUCUCUAUGG
RNA 2: GGGAAUGGAUCCACAUCUACGAAUUCGUACCAUAGAGAGGUUAUCUACUCACCGAGAUCGGAAGAGCACACGU
B11: target 1 insU 3' of 18,insA 3' of 5 (mixed)
RNA 1: CACCCGUGCAAAAAUGCAGGGGUCUAAAACUGAGCGGAUAACCUCUCUAUGG
RNA 2: GGGAAUGGAUCCACAUCUACGAAUUCGUACCAUAUGAGAGGUUAUCCGACUCACCGAGAUCGGAAGAGCACACGU
B12: target 1 insU 3' of 21,insC 3' of 13 (mixed)
RNA 1: CACCCGUGCAAAAAUGCAGGGGUCUAAAACUGAGCGGAUAACCUCUCUAUGG
RNA 2: GGGAAUGGAUCCACAUCUACGAAUUCGUACCUAUAGAGAGCGUUAUCCGCUCACCGAGAUCGGAAGAGCACACGU
B13: target 1 G13A,G17A (mixed)
RNA 1: CACCCGUGCAAAAAUGCAGGGGUCUAAAACUGAGCGGAUAACCUCUCUAUGG
RNA 2: GGGAAUGGAUCCACAUCUACGAAUUCGUACCAUAAAGAAGUUAUCCGCUCACCGAGAUCGGAAGAGCACACGU
B14: target 1 C6A,C22A (mixed)
RNA 1: CACCCGUGCAAAAAUGCAGGGGUCUAAAACUGAGCGGAUAACCUCUCUAUGG
RNA 2: GGGAAUGGAUCCACAUCUACGAAUUCGUAACAUAGAGAGGUUAUCAGCUCACCGAGAUCGGAAGAGCACACGU
B15: target 1 C4A,A18G (mixed)
RNA 1: CACCCGUGCAAAAAUGCAGGGGUCUAAAACUGAGCGGAUAACCUCUCUAUGG
RNA 2: GGGAAUGGAUCCACAUCUACGAAUUCGUACCAUGGAGAGGUUAUCCGAUCACCGAGAUCGGAAGAGCACACGU
B16: target 1 insC 3' of 10,insA 3' of 10 (mixed)
RNA 1: CACCCGUGCAAAAAUGCAGGGGUCUAAAACUGAGCGGAUAACCUCUCUAUGG
RNA 2: GGGAAUGGAUCCACAUCUACGAAUUCGUACCAUAGAGAGGUUCAAUCCGCUCACCGAGAUCGGAAGAGCACACGU
B17: target 1 G5U,U10A (mixed)
RNA 1: CACCCGUGCAAAAAUGCAGGGGUCUAAAACUGAGCGGAUAACCUCUCUAUGG
RNA 2: GGGAAUGGAUCCACAUCUACGAAUUCGUACCAUAGAGAGGUAAUCCUCUCACCGAGAUCGGAAGAGCACACGU
B18: target 1 insC 3' of 17,insA 3' of 7 (mixed)
RNA 1: CACCCGUGCAAAAAUGCAGGGGUCUAAAACUGAGCGGAUAACCUCUCUAUGG
RNA 2: GGGAAUGGAUCCACAUCUACGAAUUCGUACCAUAGCAGAGGUUAUCACGCUCACCGAGAUCGGAAGAGCACACGU
B19: target 1 insU 3' of 21,insG 3' of 16 (mixed)
RNA 1: CACCCGUGCAAAAAUGCAGGGGUCUAAAACUGAGCGGAUAACCUCUCUAUGG
RNA 2: GGGAAUGGAUCCACAUCUACGAAUUCGUACCUAUAGAGGAGGUUAUCCGCUCACCGAGAUCGGAAGAGCACACGU
B20: target 1 C2U,G12U (mixed)
RNA 1: CACCCGUGCAAAAAUGCAGGGGUCUAAAACUGAGCGGAUAACCUCUCUAUGG
RNA 2: GGGAAUGGAUCCACAUCUACGAAUUCGUACCAUAGAGAGUUUAUCCGCUUACCGAGAUCGGAAGAGCACACGU
B21: target 1 insC 3' of 11,insC 3' of 9 (mixed)
RNA 1: CACCCGUGCAAAAAUGCAGGGGUCUAAAACUGAGCGGAUAACCUCUCUAUGG
RNA 2: GGGAAUGGAUCCACAUCUACGAAUUCGUACCAUAGAGAGGUCUACUCCGCUCACCGAGAUCGGAAGAGCACACGU
B22: target 1 insU 3' of 17,insG 3' of 3 (mixed)
RNA 1: CACCCGUGCAAAAAUGCAGGGGUCUAAAACUGAGCGGAUAACCUCUCUAUGG
RNA 2: GGGAAUGGAUCCACAUCUACGAAUUCGUACCAUAGUAGAGGUUAUCCGCUGCACCGAGAUCGGAAGAGCACACGU
B23: target 1 insG 3' of 14,insU 3' of 9 (mixed)
RNA 1: CACCCGUGCAAAAAUGCAGGGGUCUAAAACUGAGCGGAUAACCUCUCUAUGG
RNA 2: GGGAAUGGAUCCACAUCUACGAAUUCGUACCAUAGAGAGGGUUAUUCCGCUCACCGAGAUCGGAAGAGCACACGU

For the data set, the target named is T1, EsCas13d, nuclease-dead. As to the kind of experiment: crRNA (strand 1, pre-loaded); Mg2+; 40 mM Tris-HCl pH 7.5, 150 mM NaCl, 6 mM MgCl2, 1 mM DTT, 0.1% Tween-20, 0.2 mg/ml BSA; 25 C; 10 min per concentration, then washed. The note with it: tags: His6-TwinStrep-SUMO cleaved; N-terminal SNAP kept (SNAP-Surface 488); label: 3' end held by stalled T7 RNA polymerase.
As usually defined, the Kd is the equilibrium constant for the complex coming apart. For B1, the affinity, expressed as Kd, was 11.7 ± 0.5 nM.
B2 came in with a Kd of 8.5 ± 1.1 nM.
Turning to B3, the affinity, expressed as Kd, was 90 ± 40 nM.
B4 yielded a Kd of 10.9 ± 0.5 nM.
On to B5, for which the Kd stood at 31 ± 8 nM.
Consider B6, for which binding was characterised by a dissociation constant (Kd) of 49 ± 11 nM.
With B7 the figure was 56 ± 6 nM; with B8, 42 ± 4 nM; with B9, roughly 60 nM.
B10 registered a Kd of 13.1 ± 0.8 nM.
The molecule B11 came in with a Kd of 23.7 ± 2.6 nM.
B12 had a Kd of 32 ± 4 nM.
With B13 the figure was 66 ± 19 nM.
With B14 the figure was 10.5 ± 0.6 nM.
With B15 the figure was 68 ± 16 nM; with B16, 13.5 ± 1 nM.
Molecule B17 gave a Kd of 95 ± 22 nM.
B18 gave a Kd of 38 ± 4 nM.
For the molecule B19, the Kd is 87 ± 23 nM.
B20 had an equilibrium dissociation constant (Kd) of 10.5 ± 0.5 nM.
As for B21, binding was put at a Kd of 29.4 ± 2.5 nM.
In the case of B22, the Kd amounted to 23.4 ± 2.7 nM.
In the case of B23 it was 81 ± 28 nM.

For the origin of these results see publication PMC10786891, “Massively parallel profiling of RNA-targeting CRISPR-Cas13d”.
